The results in this text go back to patent CN114736293A.

The experiment addresses SARS-CoV-2 S蛋白(spike protein)，展示于假病毒表面 (SARS-CoV-2) (UniProt P0DTC2). The experiment in a line: cell-based or functional assay.

With “自组装铁蛋白融合纳米抗体Ferritin-H11-D4(家蚕杆状病毒表达系统表达)”, the IC50(假病毒中和试验) is 2.19 nM, the 中和活性，相对大肠杆菌表达的铁蛋白融合蛋白的倍数 came to 20 fold and the 对假病毒的中和活性，相对单独表达的纳米抗体H11-D4的倍数 is 8 fold.
